Assays:
[1] = test system: pretreated corn stover (PCS); assay: Supplementation of CF-416 whole cellulase broth with single purified enzymes, saccharification of pretreated corn stover; type: biochemical; details: 0.4% single enzyme added to 0.5% CF-416 whole cellulase broth base; for Fold Improvement Over Whole Cellulase Broth Tested on PCS: 74 g/L glucan, pH 5.0, 55° C., 50 μM copper
Protocol: (§1) In this Example, M. thermophila-produced and purified GH61a, GH61p, GH61f, GH61n, CBH1a, CBH2b, AXE3, FAE, and Xyl3, were used to supplement the activity present in culture broths (i.e., “whole broth cellulase base”) of the M. thermophila strain CF-416 prepared using standard methods known in the art. The broth cellulase base was fixed to 0.5% protein and the single purified enzyme was added at 0.4% (wt added protein/wt glucan) to the saccharification reactions. The whole cellulase broth base and individual enzymes were characterized by standard BCA assays for total protein quantification.
(§2) The saccharification reactions were carried out at 74 g/L glucan load of pretreated wheat straw (PWS) or pretreated corn stover (PCS) at pH 5.0, 55° C. at 950 rpm in the presence of 50 μM copper in high throughput (HTP) 96 deep well plates. Glucose analysis was carried out by the glucose oxidase assay as described above. In each case, the fold improvement was calculated using the formula Fold Improvement=[Total Glucose Production with addition of 0.4% single enzyme to the whole cellulase broth base]/[glucose production from the 0.5% whole cellulase broth base]. In this Table, the fold improvements were ranked from 0 to 3; fold improvements less than 1.2× are indicated by “0,” fold improvements of >1.2 to <1.5 are indicated by “1,” fold improvements of ≧1.5× to <1.7× improvements are indicated by “2,” and fold improvements ≧1.7 are indicated by “3.”

[2] = test system: pretreated wheat straw (PWS); assay: Supplementation of CF-416 whole cellulase broth with single purified enzymes, saccharification of pretreated wheat straw; type: biochemical; details: 0.4% single enzyme added to 0.5% CF-416 whole cellulase broth base; for Fold Improvement Over Whole Cellulase Broth Tested on PWS: 74 g/L glucan, pH 5.0, 55° C., 50 μM copper
Protocol: as §1, §2

Row | Molecule | improvement over whole cellulase broth on PCS, in words [1] | improvement over whole cellulase broth on PWS, in words [2] | Fold Improvement Over Whole Cellulase Broth Tested on PCS [1] | Fold Improvement Over Whole Cellulase Broth Tested on PWS [2]
1 | EG1b: Wild-type EG1b endoglucanase (SEQ ID NO:110) (protein, listed as Myceliophthora thermophila) MGQKTLQGLVAAAALAASVANAQQPGTFTPEVHPTLPTWKCTTSGGCVQQDTSVVLDWNYRWFHTEDGSKSCITSSGVDRTLCPDEATCAKNCFVEGVNYTSSGVETSGSSLTLRQFFKGSDGAINSVSPRVYLLGGDGNYVVLKLLGQELSFDVDVSSLPCGENAALYLSEMDATGGRNEYNTGGAEYGSGYCDAQCPVQNWNNGTLNTGRVGSCCNEMDILEANSKAEAFTPHPCIGNSCDKSGCGFNAYARGYHNYWAPGGTLDTSRPFTMITRFVTDDGTTSGKLARIERVYVQDGKKVPSAAPGGDVITADGCTSAQPYGGLSGMGDALGRGMVLALSIWNDASGYMNWLDAGSNGPCSDTEGNPSNILANHPDAHVVLSNIRWGDIGSTVDTGDGDNNGGGPNPSSTTTATATTTSSGPAEPTQTHYGQCGGKGWTGPTRCETPYTCKYQNDWYSQCL | did not show any improvement | did not show any improvement |  | 
2 | FAE: wild-type M. thermophila ferulic acid esterase (SEQ ID NO:170) (protein, listed as Myceliophthora thermophila) MISVPALALALLAAVQVVESASAGCGKAPPSSGTKSMTVNGKQRQYILQLPNNYDANKAHRVVIGYHWRDGSMNDVANGGFYDLRSRAGDSTIFVAPNGLNAGWANVGGEDITFTDQIVDMLKNDLCVDETQFFATGWSYGGAMSHSVACSRPDVFKAVAVIAGAQLSGCAGGTTPVAYLGIHGAADNVLPIDLGRQLRDKWLQTNGCNYQGAQDPAPGQQAHIKTTYSCSRAPVTWIGHGGGHVPDPTGNNGVKFAPQETWDFFDAAVGAAGAQSPMT |  |  | 1 (fold improvements of >1.2 to <1.5) | 1 (fold improvements of >1.2 to <1.5)
3 | Xyl3: wild-type M. thermophila xylanase (SEQ ID NO:149) (protein, listed as Myceliophthora thermophila) MHSKAFLAALLAPAVSGQLNDLAVRAGLKYFGTALSESVINSDTRYAAILSDKSMFGQLVPENGMKWDATEPSRGQFNYASGDITANTAKKNGQGMRCHTMVWYSQLPSWVSSGSWTRDSLTSVIETHMNNVMGHYKGQCYAWDVINEAINDDGNSWRDNVFLRTFGTDYFALSFNLAKKADPDTKLYYNDYNLEYNQAKTDRAVELVKMVQAAGAPIDGVGFQGHLIVGSTPTRSQLATALQRFTALGLEVAYTELDIRHSSLPASSSALATQGNDFANVVGSCLDTAGCVGVTVWGFTDAHSWIPNTFPGQGDALIYDSNYNKKPAWTSISSVLAAKATGAPPASSSTTLVTITTPPPASTTASSSSSATPTSVPTQTRWGQCGGIGWTGPTQCESPWTCQKLNDWYWQCL |  |  | 0 (fold improvements less than 1.2×) | 1 (fold improvements of >1.2 to <1.5)
4 | CBH1a: wild-type M. thermophila CBH1a (SEQ ID NO:128) (protein, listed as Myceliophthora thermophila) MYAKFATLAALVAGAAAQNACTLTAENHPSLTYSKCTSGGSCTSVQGSITIDANWRWTHRTDSATNCYEGNKWDTSWCSDGPSCASKCCIDGADYSSTYGITTSGNSLNLKFVTKGQYSTNIGSRTYLMESDTKYQMFQLLGNEFTFDVDVSNLGCGLNGALYFVSMDADGGMSKYSGNKAGAKYGTGYCDSQCPRDLKFINGEANVENWQSSTNDANAGTGKYGSCCSEMDVWEANNMAAAFTPHPCTVIGQSRCEGDSCGGTYSTDRYAGICDPDGCDFNSYRQGNKTFYGKGMTVDTTKKITVVTQFLKNSAGELSEIKRFYVQNGKVIPNSESTIPGVEGNSITQDWCDRQKAAFGDVTDFQDKGGMVQMGKALAGPMVLVMSIWDDHAVNMLWLDSTWPIDGAGKPGAERGACPTTSGVPAEVEAEAPNSNVIFSNIRFGPIGSTVSGLPDGGSGNPNPPVSSSTPVPSSSTTSSGSSGPTGGTGVAKHYEQCGGIGFTGPTQCESPYTCTKLNDWYSQCL |  |  | 1 (fold improvements of >1.2 to <1.5) | 3 (fold improvements ≧1.7)
5 | AXE3: wild-type M. thermophila acetylxylan esterase (SEQ ID NO:167) (protein, listed as Myceliophthora thermophila) MKLLGKLSAALALAGSRLAAAHPVFDELMRPTAPLVRPRAALQQVTNFGSNPSNTKMFIYVPDKLAPNPPIIVAIHYCTGTAQAYYSGSPYARLADQKGFIVIYPESPYSGTCWDVSSRAALTHNGGGDSNSIANMVTYTLEKYNGDASKVFVTGSSSGAMMTNVMAAAYPELFAAGIAYSGVPAGCFYSQSGGTNAWNSSCANGQINSTPQVWAKMVFDMYPEYDGPRPKMQIYHGSADGTLRPSNYNETIKQWCGVFGFDYTRPDTTQANSPQAGYTTYTWGEQQLVGIYAQGVGHTVPIRGSDDMAFFGL |  |  | 0 (fold improvements less than 1.2×) | 1 (fold improvements of >1.2 to <1.5)

Second part, the molecule after the results:

Row | improvement over whole cellulase broth on PCS, in words [1] | improvement over whole cellulase broth on PWS, in words [2] | Fold Improvement Over Whole Cellulase Broth Tested on PCS [1] | Fold Improvement Over Whole Cellulase Broth Tested on PWS [2] | Molecule
6 | did not show any improvement | did not show any improvement |  |  | beta-xylosidase: wild-type M. thermophila beta-xylosidase (SEQ ID NO:164) (protein, listed as Myceliophthora thermophila) MFFASLLLGLLAGVSASPGHGRNSTFYNPIFPGFYPDPSCIYVPERDHTFFCASSSFNAFPGIPIHASKDLQNWKLIGHVLNRKEQLPRLAETNRSTSGIWAPTLRFHDDTFWLVTTLVDDDRPQEDASRWDNIIFKAKNPYDPRSWSKAVHFNFTGYDTEPFWDEDGKVYITGAHAWHVGPYIQQAEVDLDTGAVGEWRIIWNGTGGMAPEGPHIYRKDGWYYLLAAEGGTGIDHMVTMARSRKISSPYESNPNNPVLTNANTTSYFQTVGHSDLFHDRHGNWWAVALSTRSGPEYLHYPMGRETVMTAVSWPKDEWPTFTPISGKMSGWPMPPSQKDIRGVGPYVNSPDPEHLTFPRSAPLPAHLTYWRYPNPSSYTPSPPGHPNTLRLTPSRLNLTALNGNYAGADQTFVSRRQQHTLFTYSVTLDYAPRTAGEEAGVTAFLTQNHHLDLGVVLLPRGSATAPSLPGLSSSTTTTSSSSSRPDEEEEREAGEEEEEGGQDLMIPHVRFRGESYVPVPAPVVYPIPRAWRGGKLVLEIRACNSTHFSFRVGPDGRRSERTVVMEASNEAVSWGFTGTLLGIYATSNGGNGTTPAYFSDWRYTPLEQFRD
7 |  |  | 1 (fold improvements of >1.2 to <1.5) | 1 (fold improvements of >1.2 to <1.5) | GH61n: M. thermophila GH61n (SEQ ID NO:62; alternative SEQ ID NO:64) (protein, listed as Myceliophthora thermophila) MTKNAQSKQGVENPTSGDIRCYTSQTAANVVTVPAGSTIHYISTQQINHPGPTQYYLAKVPPGSSAKTFDGSGAVWFKISTTMPTVDSNKQMFWPGQNTYETSNTTIPANTPDGEYLLRVKQIALHMASQPNKVQFYLACTQIKITGGRNGTPSPLVALPGAYKSTDPGILVDIYSMKPESYQPPGPPVWRG
8 |  |  | 1 (fold improvements of >1.2 to <1.5) | 1 (fold improvements of >1.2 to <1.5) | GH61f: M. thermophila GH61f (SEQ ID NO:29) (protein, listed as Myceliophthora thermophila) MKSFTLTTLAALAGNAAAHATFQALWVDGVDYGAQCARLPASNSPVTDVTSNAIRCNANPSPARGKCPVKAGSTVTVEMHQQPGDRSCSSEAIGGAHYGPVMVYMSKVSDAASADGSSGWFKVFEDGWAKNPSGGSGDDDYWGTKDLNSCCGKMNVKIPADLPSGDYLLRAEALALHTAGSAGGAQFYMTCYQLTVTGSGSASPPTVSFPGAYKATDPGILVNIHAPLSGYTVPGPAVYSGGSTKKAGSACTGCESTCAVGSGPTATVSQSPGSTATSAPGGGGGCTVQKYQQCGGQGYTGCTNCASGSTCSAVSPPYYSQCV
9 | greatest benefit |  | 3 (fold improvements ≧1.7) | 2 (fold improvements of ≧1.5× to <1.7×) | GH61p: M. thermophila GH61p (SEQ ID NO:70; alternative SEQ ID NO:73) (protein, listed as Myceliophthora thermophila) MKLTSSLAVLAAAGAQAHYTFPRAGTGGSLSGEWEVVRMTENHYSHGPVTDVTSPEMTCYQSGVQGAPQTVQVKAGSQFTFSVDPSIGHPGPLQFYMAKVPSGQTAATFDGTGAVWFKIYQDGPNGLGTDSITWPSAGKTEVSVTIPSCIEDGEYLLRVEHTPLPTAPAAQNRARSSPSPAAYKATDPGILFQLYWPIPTEYINPGPAPVSC
10 |  |  | 1 (fold improvements of >1.2 to <1.5) | 1 (fold improvements of >1.2 to <1.5) | CBH2b: wild-type M. thermophila CBH2b (SEQ ID NO:137) (protein, listed as Myceliophthora thermophila) MAKKLFITAALAAAVLAAPVIEERQNCGAVWTQCGGNGWQGPTCCASGSTCVAQNEWYSQCLPNSQVTSSTTPSSTSTSQRSTSTSSSTTRSGSSSSSSTTPPPVSSPVTSIPGGATSTASYSGNPFSGVRLFANDYYRSEVHNLAIPSMTGTLAAKASAVAEVPSFQWLDRNVTIDTLMVQTLSQVRALNKAGANPPYAAQLVVYDLPDRDCAAAASNGEFSIANGGAANYRSYIDAIRKHIIEYSDIRIILVIEPDSMANMVTNMNVAKCSNAASTYHELTVYALKQLNLPNVAMYLDAGHAGWLGWPANIQPAAELFAGIYNDAGKPAAVRGLATNVANYNAWSIASAPSYTSPNPNYDEKHYIEAFSPLLNSAGFPARFIVDTGRNGKQPTGQQQWGDWCNVKGTGFGVRPTANTGHELVDAFVWVKPGGESDGTSDTSAARYDYHCGLSDALQPAPEAGQWFQAYFEQLLTNANPPF
